{"source": "patent US20180362629A1", "about": "(ZOETIS BELGIUM S A, published 2018)", "key": {"[1]": {"molecular_target": "T1, recombinant canine β NGF (canine, UniProt Q29074 110-229 (pig entry))", "T1 construct": "also called canine NGF", "T1 chain": "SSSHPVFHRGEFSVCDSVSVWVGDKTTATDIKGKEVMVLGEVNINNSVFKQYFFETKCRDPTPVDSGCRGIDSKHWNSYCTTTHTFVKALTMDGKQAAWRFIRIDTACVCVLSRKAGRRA", "test": "SPR (Biacore T100), antibody captured on goat anti-canine IgG, canine NGF injected; Expt 1; Expt 1", "method": "(§1) Purified mouse/canine chimeric antibodies and caninized antibodies were analyzed for affinity to canine NGF using a Biacore T100 instrument. Goat anti Canine IgG (Southern Biotech) was immobilized at 5000-10000 RU on a CM5 chip using an amine coupling procedure according to the manufacturer's instructions (Biacore). […] The association rate was monitored for 5 min and the dissociation rate was monitored for 10-20 min. The chip surface was regenerated using 50-75 ul 10 mM glycine pH 1.5 at a flow rate of 50-100 ul/min. Data was analyzed using Biaevaluation T100 software version 2.0.2, software, GE Healthcare Life Sciences (Piscataway, N.J.). Overall affinity parameters established for mouse/canine chimeric antibodies is summarized in Table 22 and for caninized antibodies in Table 23. […] The overall KDs of the mouse/canine anti-NGF mAbs range from about 1300 pM to 1.6 pM. […] The overall KDs of the caninized anti-NGF mAbs range from about 42 pM to 1.2 pM."}, "[2]": {"molecular_target": "T1, recombinant canine β NGF", "test": "SPR (Biacore T100), antibody captured on goat anti-canine IgG, canine NGF injected; Expt 2", "method": "as §1"}, "[3]": {"molecular_target": "T1, recombinant canine β NGF", "test": "SPR (Biacore T100), antibody captured on goat anti-canine IgG, canine NGF injected; Average", "method": "as §1"}, "[4]": {"molecular_target": "T1, recombinant canine β NGF", "test": "SPR (Biacore T100), antibody captured on goat anti-canine IgG, canine NGF injected; Expt 1", "method": "as §1"}, "[5]": {"molecular_target": "T1, recombinant canine β NGF", "test": "cell-based or functional assay"}, "[6]": {"molecular_target": "T1, recombinant canine β NGF", "test": "cell-based or functional assay"}, "[7]": {"molecular_target": "T1, recombinant canine β NGF", "test": "direct ELISA, canine NGF coated at 1 µg/ml, mAb at 2 µg/ml"}, "[8]": {"molecular_target": "T1, recombinant canine β NGF", "test": "SPR (Biacore), mAb captured on goat anti-mouse IgG Fc, canine NGF injected; Expt 1; Expt 1", "method": "(§2) A biomolecular protein interaction analysis was used to evaluate the binding kinetics of the interaction between the purified anti-NGF hybridoma antibodies and recombinant canine β NGF. The antibodies were captured using a goat anti-mouse IgG FC (10000 RU) surface which was directly immobilized to a CM5 chip using an amine coupling procedure according to the manufacturer's instructions (Biacore). A sample size of 5 μl of antibody at a concentration of 1 μg/ml was captured at 10 μl minute. Recombinant canine NGF was used as the antigen. Canine NGF was injected at 75 μl/min (concentration range: 5-0.039 nM) for mouse antibodies. The association rate was monitored for 3.3 minutes and the dissociation rate was monitored for 10 minutes. Aliquots of canine NGF were also simultaneously injected over a reference reaction CM surface to record any nonspecific binding background. The instrument sensitivity for on-rate is I×IO⁷, such that any on-rate that is faster than I×IO⁷ may not be accurately measured; the instrument sensitivity for off-rate is […], such that any off-rate that is slower than 1×10⁻⁶ may not be accurately measured. Therefore, an on-rate that is faster than 1×10⁷ is recorded as >1×10⁷ and an off-rate that is slower than 1×10⁻⁶ is recorded as <1×10⁻⁶."}, "[9]": {"molecular_target": "T1, recombinant canine β NGF", "test": "SPR (Biacore), mAb captured on goat anti-mouse IgG Fc, canine NGF injected; Average; Average", "method": "as §2"}, "[10]": {"molecular_target": "T1, recombinant canine β NGF", "test": "direct ELISA, canine NGF coated at 1 µg/ml, mAb at 0.4 µg/ml"}, "[11]": {"molecular_target": "T1, recombinant canine β NGF", "test": "SPR (Biacore), mAb captured on goat anti-mouse IgG Fc, canine NGF injected; Expt 1"}, "[12]": {"molecular_target": "T1, recombinant canine β NGF", "test": "SPR (Biacore), mAb captured on goat anti-mouse IgG Fc, canine NGF injected; Average"}, "[13]": {"molecular_target": "T1, recombinant canine β NGF", "test": "direct ELISA, canine NGF coated at 1 µg/ml, mAb at 10 µg/ml"}, "[14]": {"molecular_target": "T1, recombinant canine β NGF", "test": "cell-based or functional assay"}, "[15]": {"molecular_target": "T1, recombinant canine β NGF", "test": "SPR (Biacore), mAb captured on goat anti-mouse IgG Fc, canine NGF injected; Expt 2"}}, "note": "Read-outs that look alike come from different tables or passages of the source."}
{"binder": "82.3 Canine IgG1/k (antibody, V domains shown, The variable/constant junction was not checked; also called PR-1313519; PR-13113519) VH: EVQLQESGPGLVKPSQTLSLTCTVSGFSLTGYNINWVRQRPDRGLEWLGMIWGYGDTDYNSALKSRLSISKDNTKSQVFLQLTSTTTEDTAVYYCARDHYGGNDWYFDVWGQGTLVTVSS VL: DIQMTQTPLSLSASPGESASITCRASQDITNYLNWYRQKPGQSVKLLIYYTSRLHSGVPSRFSGSGSGTDYSLRISRVEDEDAGLYFCQQGKTLPRTFGQGTKLEIKR", "values": [{"measurement": "koff", "setting": "[1]", "value": "2e-05", "unit": "s⁻¹"}, {"measurement": "Kd", "setting": "[2]", "value": 1.6, "unit": "pM"}, {"measurement": "koff", "setting": "[2]", "value": "1.3e-05", "unit": "s⁻¹"}, {"measurement": "kon", "setting": "[2]", "value": "8.5e+06", "unit": "M⁻¹ s⁻¹"}, {"measurement": "Kd", "setting": "[3]", "value": 2, "unit": "pM"}, {"measurement": "koff", "setting": "[3]", "value": "1.7e-05", "unit": "s⁻¹"}, {"measurement": "kon", "setting": "[3]", "value": "8.4e+06", "unit": "M⁻¹ s⁻¹"}, {"measurement": "Kd", "setting": "[4]", "value": 2.4, "unit": "pM"}, {"measurement": "kon", "setting": "[4]", "value": "8.2e+06", "unit": "M⁻¹ s⁻¹"}, {"measurement": "IC50, canine NGF-induced TF-1 cell proliferation (70 pM canine NGF)", "setting": "[5]", "value": 17, "unit": "pM"}]}
{"binder": "PR-1254982 (antibody, mouse IgG1, V domains shown, also called 3F7; ML130-3F7.4A8) VH: QVQLKESGPGLVAPSQSLSITCTVSGFSLTGYNINWVRQPPGKGLEWLGMIWGYGDTDYNSALKSRLSISKDNSKSQVFLKMNSLQTDDTARYYCARDHYGGNDWYFDVWGTGTTVTVSS VL: DIQMTQTTSSLSASLGDRVTITCRASQDITNYLNWYQQKPDGTVKLLIYYTSRLHSGVPSRFSGSGSGTDYSLTISNLDQEDIATYFCQQGKTLPRTFGGGTKLEIKR", "values": [{"measurement": "PathHunter IC50 (441 pM canine NGF)", "setting": "[6]", "value": 0.15, "unit": "nM"}, {"measurement": "SureFire pERK IC50 (128 pM canine β NGF)", "setting": "[6]", "value": 5.8, "unit": "pM"}, {"measurement": "absorbance at 450 nm", "setting": "[7]", "value": 0.142, "unit": "A450"}, {"measurement": "koff", "setting": "[8]", "value": "< 1e-06", "unit": "s⁻¹"}, {"measurement": "koff", "setting": "[9]", "value": "< 1e-06", "unit": "s⁻¹"}, {"measurement": "absorbance at 450 nm", "setting": "[10]", "value": 0.095, "unit": "A450"}, {"measurement": "Kd", "setting": "[11]", "value": "< 0.1", "unit": "pM"}, {"measurement": "kon", "setting": "[11]", "value": "> 1e+07", "unit": "M⁻¹ s⁻¹"}, {"measurement": "Kd", "setting": "[12]", "value": "< 0.1", "unit": "pM"}, {"measurement": "kon", "setting": "[12]", "value": "> 1e+07", "unit": "M⁻¹ s⁻¹"}, {"measurement": "absorbance at 450 nm", "setting": "[13]", "value": 0.208, "unit": "A450"}, {"measurement": "IC50, canine NGF-induced TF-1 cell proliferation (70 pM canine NGF)", "setting": "[14]", "value": 25, "unit": "pM"}, {"measurement": "Kd", "setting": "[15]", "value": "< 0.1", "unit": "pM"}, {"measurement": "koff", "setting": "[15]", "value": "< 1e-06", "unit": "s⁻¹"}, {"measurement": "kon", "setting": "[15]", "value": "> 1e+07", "unit": "M⁻¹ s⁻¹"}]}
